Positions count from the first letter of the chain named.
Columns and labels:
VEGF [1] = assay: cell-based or functional assay
[2] = target: T1, recombinant human VEGF165 (human, UniProt P15692-4 27-191); assay: VEGF165/VEGFR2 AlphaScreen
T1 construct: also called hVEGF165; rhVEGF165
Target sequence in this assay (P15692 other isoform, or with tags, fused parts or gaps limits assumed): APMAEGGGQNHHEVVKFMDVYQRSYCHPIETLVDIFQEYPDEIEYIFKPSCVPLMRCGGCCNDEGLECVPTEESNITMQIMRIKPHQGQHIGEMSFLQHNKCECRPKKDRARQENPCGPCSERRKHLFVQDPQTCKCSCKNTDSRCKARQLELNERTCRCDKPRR

[3] = target: T2, recombinant human VEGF121 (human, UniProt P15692-9 27-147); assay: binding ELISA, coated rhVEGF121
T2 construct: also called rhVEGF121; hVEGF121
T2 sequence (looked up): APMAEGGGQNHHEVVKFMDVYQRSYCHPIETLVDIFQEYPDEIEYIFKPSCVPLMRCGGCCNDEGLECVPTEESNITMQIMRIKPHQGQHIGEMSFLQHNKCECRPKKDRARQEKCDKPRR
Method: Binding to recombinant human VEGF121 is assessed via a solid phase binding ELISA. Briefly, recombinant human VEGF121 (R&D Systems, Minneapolis, Minn., USA) is coated overnight at 4° C. at 1 μg/mL in a 96-well MaxiSorp plate (Nunc, Wiesbaden, Germany). Wells are blocked with a casein solution (1% in PBS).

[4] = target: T1, recombinant human VEGF165; assay: hVEGF165/hVEGFR2-Fc competition ELISA
Target sequence in this assay (P15692 other isoform, or with tags, fused parts or gaps limits assumed): as the sequence (P15692 other isoform, or with tags, fused parts or gaps limits assumed) above

[5] = target: T1, recombinant human VEGF165; assay: VEGF165/VEGFR2 blocking AlphaScreen
Target sequence in this assay (P15692 other isoform, or with tags, fused parts or gaps limits assumed): as the sequence (P15692 other isoform, or with tags, fused parts or gaps limits assumed) above

[6] = target: T1, recombinant human VEGF165; assay: Biacore on VEGF165 (Example 5.5)
Method: (§1) Samples are injected for 2 min and allowed to dissociate up to 20 min at a flow rate of 45 μI/min. In between sample injections, the chip surface is regenerated with 100 mM HCl. HBS-EP+(Hepes buffer pH7.4+EDTA) is used as running buffer. Binding curves are fitted using a Two State Reaction model by Biacore T100 Evaluation Software v2.0.1.
Target sequence in this assay (P15692 other isoform, or with tags, fused parts or gaps limits assumed): as the sequence (P15692 other isoform, or with tags, fused parts or gaps limits assumed) above

VEGF [7] = assay: cell-based or functional assay; remark: listed apart in the source
[8] = target: T1, recombinant human VEGF165; assay: ka1; SPR Biacore T100, hVEGF165 on chip, Two State Reaction model
Method: as §1
(§2) ^{(a)}Heterogeneous binding curve resulting in no 1:1 fit, curves are fitted using a Two State Reaction model by Biacore T100 Evaluation Software v2.0.1
Target sequence in this assay (P15692 other isoform, or with tags, fused parts or gaps limits assumed): as the sequence (P15692 other isoform, or with tags, fused parts or gaps limits assumed) above

[9] = target: T1, recombinant human VEGF165; assay: binding ELISA, coated rhVEGF165
[10] = target: T1, recombinant human VEGF165; assay: SPR Biacore T100, hVEGF165 on chip, Two State Reaction model
Method: as §1, §2
Target sequence in this assay (P15692 other isoform, or with tags, fused parts or gaps limits assumed): as the sequence (P15692 other isoform, or with tags, fused parts or gaps limits assumed) above

[11] = target: T1, recombinant human VEGF165; assay: AlphaScreen competition, 0.05 nM hVEGF165 and 0.05 nM hVEGFR1-Fc; blocked: hVEGFR1-Fc
[12] = target: T1, recombinant human VEGF165; assay: AlphaScreen competition, 0.05 nM hVEGF165 and 0.05 nM hVEGFR2-Fc; blocked: hVEGFR2-Fc
[13] = target: T1, recombinant human VEGF165; assay: as above; remark: listed apart in the source
[14] = target: T1, recombinant human VEGF165; assay: competition AlphaScreen, blocking of hVEGF165 binding to hVEGFR2-Fc
[15] = target: T1, recombinant human VEGF165; assay: AlphaScreen competition, 0.05 nM hVEGF165 and 0.05 nM hVEGFR1-Fc; blocked: hVEGFR1-Fc; remark: listed apart in the source
[16] = target: T1, recombinant human VEGF165; assay: as above; remark: listed apart in the source
[17] = target: T1, recombinant human VEGF165; assay: competition AlphaScreen, blocking of hVEGF165 binding to hVEGFR1-Fc
[18] = target: T1, recombinant human VEGF165; assay: AlphaScreen competition, 0.05 nM hVEGF165 and 0.05 nM hVEGFR2-Fc; blocked: hVEGFR2-Fc; remark: listed apart in the source
[19] = target: T1, recombinant human VEGF165; assay: as above; remark: listed apart in the source
[20] = target: T1, recombinant human VEGF165; assay: KD1; SPR Biacore T100 on hVEGF165
[21] = target: T1, recombinant human VEGF165; assay: AlphaScreen competition, 0.05 nM hVEGF165 and 0.05 nM hVEGFR2-Fc; blocked: hVEGFR2-Fc; remark: listed apart in the source
[22] = target: T1, recombinant human VEGF165; assay: as above; remark: listed apart in the source
[23] = target: T1, recombinant human VEGF165; assay: competition AlphaScreen, blocking of hVEGF165 binding to hVEGFR2-Fc; remark: listed apart in the source

B1: VEGFBII23B04 (VHH)
VHH: EVQLVESGGGLVQTGDSLRLSCEVSGRTFSSYSMGWFRQAQGKEREFVVAISKGGYKYDSVSLEGRFTISKDNAKNTVYLQINSLKPEDTAVYYCASSRAYGSSRLRLADTYEYWGQGTQVTVSS
notes: also called VEGFBII23B4; VEGFBII23B04 (wt)
% inhibition, VEGF HUVEC proliferation assay (VEGF [1]): 92%
IC50 (nM), VEGF HUVEC proliferation assay (VEGF [1]): 0.68 nM
% inhibition [2]: 100%
IC50 [2]: 0.169 nM
EC50 [3]: 0.51 nM
% inhibition [4]: 100%
IC50 [4]: 2.1 nM
% inhibition [5]: 100%
IC50 [5]: 0.152 nM
Kd [6]: 0.56 nM
IC50 (nM), VEGF HUVEC Erk phosphorylation assay (VEGF [7]): 0.37 nM
kon [8]: 210000 M⁻¹ s⁻¹
EC50 [9]: 0.297 nM
Kd [10]: 0.7 nM
kd2 [10]: 0.00024 s⁻¹

B2: VEGFBII038 (VHH)
VHH: B1 VHH with E1D, T14P, D16G, E23A, V24A, Q41P, S60A, K71R, K86R, Q120L
notes: also called VEGFBII0038; VEGFBII00038
% inhibition, VEGF HUVEC proliferation assay (VEGF [1]): 92%
IC50 (nM), VEGF HUVEC proliferation assay (VEGF [1]): 0.6 nM
IC50 (read off the curve) [11]: ~0.8 nM
IC50 (read off the curve) [12]: ~0.2 nM
IC50 (read off the curve) [13]: ~0.5 nM
IC50 (read off the curve) [14]: ~0.4 nM
IC50 (read off the curve) [15]: ~0.3 nM
IC50 (read off the curve) [16]: ~0.8 nM
IC50 (read off the curve) [17]: ~0.4 nM
IC50 (read off the curve) [18]: ~0.5 nM
% inhibition [5]: 100%
IC50 [5]: 0.143 nM
Kd [6]: 0.36 nM
IC50 (read off the curve) [19]: ~0.2 nM
Kd [20]: 0.75 nM
IC50 (read off the curve) [21]: ~0.2 nM
IC50 (read off the curve) [22]: ~0.4 nM
IC50 (read off the curve) [23]: ~0.4 nM

Source: US20170247475A1 (Boehringer Ingelheim, published 2017)
